According to the Human Domainome abundance scans (Beltran et al. 2025):
± gives the uncertainty stated by the source.

B1: POU domain, class 4, transcription factor 3, residues 185 to 256; numbered along this chain, Q15319 (parent)
chain: RELEAFAERFKQRRIKLGVTQADVGAALANLKIPGVGSLSQSTICRFESLTLSHNNMIALKPVLQAWLEEAE

Variants of: B1
Assay: abundance fitness (aPCA) (normalised: wild type 0, dead -1); higher = more abundant; growth selection in yeast, the domain comes from the species named
Settings: Homo sapiens

Question: For S42T, which abundance fitness is on record?
Answer: -0.116 ± 0.079

Question: For S42F, which abundance fitness is on record?
Answer: -0.225 ± 0.069

Question: Which abundance fitness does the source give for S42K here?
Answer: 0.046 ± 0.11

Question: Which abundance fitness does the source give for V19M here?
Answer: 0.12 ± 0.058

Question: With V19K as the variant, how does the abundance fitness read?
Answer: 0.078 ± 0.029

Question: With V19S as the variant, how does the abundance fitness read?
Answer: -0.14 ± 0.029

Question: With V19F as the variant, how does the abundance fitness read?
Answer: 0.03 ± 0.048

Question: With V19P as the variant, how does the abundance fitness read?
Answer: -0.835 ± 0.048

Question: With V19L as the variant, how does the abundance fitness read?
Answer: 0.011 ± 0.03

Question: Which abundance fitness does the source give for L28S here?
Answer: -0.688 ± 0.12

Question: For L28Y, which abundance fitness is on record?
Answer: -0.49 ± 0.23

Question: Which abundance fitness does the source give for L28R here?
Answer: -1.06 ± 0.47

Question: Which abundance fitness does the source give for L28G here?
Answer: -0.813 ± 0.22

Question: With L28K as the variant, how does the abundance fitness read?
Answer: -0.915 ± 0.19

Question: For L28N, which abundance fitness is on record?
Answer: -0.623 ± 0.12

Question: Which abundance fitness does the source give for S53Q here?
Answer: -0.403 ± 0.14

Question: Which abundance fitness does the source give for S53R here?
Answer: -0.229 ± 0.054

Question: Which abundance fitness does the source give for S53T here?
Answer: -0.208 ± 0.11

Question: Which abundance fitness does the source give for A66D here?
Answer: -0.162 ± 0.24

Question: With A66K as the variant, how does the abundance fitness read?
Answer: 0.079 ± 0.12

Question: With A66G as the variant, how does the abundance fitness read?
Answer: -0.013 ± 0.092

Question: Which abundance fitness does the source give for A66T here?
Answer: -0.074 ± 0.18

Question: For F6K, which abundance fitness is on record?
Answer: -1.03 ± 0.42

Question: With L3Q as the variant, how does the abundance fitness read?
Answer: -0.227 ± 0.13

Question: With L3N as the variant, how does the abundance fitness read?
Answer: -0.605 ± 0.12

Question: Which abundance fitness does the source give for L3T here?
Answer: -0.109 ± 0.18

Question: Which abundance fitness does the source give for L3V here?
Answer: 0.074 ± 0.13

Question: For A27M, which abundance fitness is on record?
Answer: -0.176 ± 0.11

Question: With A27E as the variant, how does the abundance fitness read?
Answer: -0.123 ± 0.081

Question: With A27D as the variant, how does the abundance fitness read?
Answer: -0.431 ± 0.23

Question: For A27Y, which abundance fitness is on record?
Answer: -0.084 ± 0.088

Question: With A27G as the variant, how does the abundance fitness read?
Answer: -0.196 ± 0.046

Question: With P34Y as the variant, how does the abundance fitness read?
Answer: -0.379 ± 0.14

Question: For P34I, which abundance fitness is on record?
Answer: -0.419 ± 0.32

Question: Which abundance fitness does the source give for P34V here?
Answer: -0.271 ± 0.14

Question: Which abundance fitness does the source give for I44V here?
Answer: 0.08 ± 0.16

Question: Which abundance fitness does the source give for L68E here?
Answer: -0.503 ± 0.042

Question: Which abundance fitness does the source give for L68Q here?
Answer: -0.497 ± 0.047

Question: With L68M as the variant, how does the abundance fitness read?
Answer: -0.056 ± 0.031

Question: With L68V as the variant, how does the abundance fitness read?
Answer: -0.13 ± 0.026

Question: Which abundance fitness does the source give for L68T here?
Answer: -0.46 ± 0.038

Question: For L68K, which abundance fitness is on record?
Answer: -0.901 ± 0.054

Question: Which abundance fitness does the source give for L68G here?
Answer: -0.685 ± 0.042

Question: With L68I as the variant, how does the abundance fitness read?
Answer: -0.056 ± 0.069

Question: Which abundance fitness does the source give for A59S here?
Answer: -0.514 ± 0.4

Question: For A26T, which abundance fitness is on record?
Answer: -0.108 ± 0.039

Question: With A26D as the variant, how does the abundance fitness read?
Answer: -0.01 ± 0.052

Question: With A26Q as the variant, how does the abundance fitness read?
Answer: -0.029 ± 0.045

Question: Which abundance fitness does the source give for A26L here?
Answer: -0.027 ± 0.025

Question: For A26R, which abundance fitness is on record?
Answer: -0.017 ± 0.028

Question: With A26H as the variant, how does the abundance fitness read?
Answer: -0.052 ± 0.058

Question: With A26V as the variant, how does the abundance fitness read?
Answer: -0.069 ± 0.026

Question: Which abundance fitness does the source give for A26M here?
Answer: -0.095 ± 0.035

Question: Which abundance fitness does the source give for D23H here?
Answer: -0.017 ± 0.23

Question: With D23N as the variant, how does the abundance fitness read?
Answer: -0.112 ± 0.1

Question: Which abundance fitness does the source give for D23M here?
Answer: -0.135 ± 0.11

Question: With N30R as the variant, how does the abundance fitness read?
Answer: -0.148 ± 0.078

Question: For N30G, which abundance fitness is on record?
Answer: -0.058 ± 0.12

Question: For N30S, which abundance fitness is on record?
Answer: -0.186 ± 0.098

Question: Which abundance fitness does the source give for N30H here?
Answer: -0.051 ± 0.16

Question: With N30C as the variant, how does the abundance fitness read?
Answer: -0.261 ± 0.15

Question: Which abundance fitness does the source give for N30E here?
Answer: -0.083 ± 0.091

Question: With N30M as the variant, how does the abundance fitness read?
Answer: -0.239 ± 0.12

Question: Which abundance fitness does the source give for N30L here?
Answer: -0.279 ± 0.049

Question: With E4G as the variant, how does the abundance fitness read?
Answer: -0.197 ± 0.033

Question: With E4N as the variant, how does the abundance fitness read?
Answer: -0.11 ± 0.096

Question: With E4M as the variant, how does the abundance fitness read?
Answer: 0.01 ± 0.11

Question: With E4R as the variant, how does the abundance fitness read?
Answer: 0.041 ± 0.11

Question: With E4L as the variant, how does the abundance fitness read?
Answer: -0.214 ± 0.064

Question: Which abundance fitness does the source give for R13A here?
Answer: -0.01 ± 0.055

Question: Which abundance fitness does the source give for R13T here?
Answer: 0.108 ± 0.072

Question: For R13D, which abundance fitness is on record?
Answer: -0.234 ± 0.12

Question: With R13I as the variant, how does the abundance fitness read?
Answer: 0.05 ± 0.12

Question: Which abundance fitness does the source give for R13Q here?
Answer: -0.069 ± 0.18

Question: Which abundance fitness does the source give for K32V here?
Answer: -0.009 ± 0.031

Question: For K32G, which abundance fitness is on record?
Answer: -0.169 ± 0.039

Question: With K32I as the variant, how does the abundance fitness read?
Answer: -0.049 ± 0.045

Question: With K32F as the variant, how does the abundance fitness read?
Answer: -0.174 ± 0.037

Question: With K32Y as the variant, how does the abundance fitness read?
Answer: -0.12 ± 0.051

Question: Which abundance fitness does the source give for K32W here?
Answer: -0.162 ± 0.052

Question: With K32R as the variant, how does the abundance fitness read?
Answer: -0.039 ± 0.035

Question: Which abundance fitness does the source give for K32T here?
Answer: -0.088 ± 0.051

Question: For R14E, which abundance fitness is on record?
Answer: -0.95 ± 0.34
